B1: Ferredoxin--NADP reductase, chloroplastic (Spinacia oleracea (Spinach)), P00455 (parent)
chain: MTTAVTAAVSFPSTKTTSLSARSSSVISPDKISYKKVPLYYRNVSATGKMGPIRAQIASDVEAPPPAPAKVEKHSKKMEEGITVNKFKPKTPYVGRCLLNTKITGDDAPGETWHMVFSHEGEIPYREGQSVGVIPDGEDKNGKPHKLRLYSIASSALGDFGDAKSVSLCVKRLIYTNDAGETIKGVCSNFLCDLKPGAEVKLTGPVGKEMLMPKDPNATIIMLGTGTGIAPFRSFLWKMFFEKHDDYKFNGLAWLFLGVPTSSSLLYKEEFEKMKEKAPDNFRLDFAVSREQTNEKGEKMYIQTRMAQYAVELWEMLKKDNTYFYMCGLKGMEKGIDDIMVSLAAAEGIDWIEYKRQLKKAEQWNVEVY

Variants of: B1
Details: with fer1_spiol PETF

Variant	effect of a mutation on the interaction
MTTAVTAAVSFPSTKTTSLSARSSSVISPDKISYKKVPLYYRNVSATGKMGPIRAQIASDVEAPPPAPAKVEKHSKKMEEGITVNKFQPKTPYVGRCLLNTKITGDDAPGETWHMVFSHEGEIPYREGQSVGVIPDGEDKNGKPHKLRLYSIASSALGDFGDAKSVSLCVKRLIYTNDAGETIKGVCSNFLCDLKPGAEVKLTGPVGKEMLMPKDPNATIIMLGTGTGIAPFRSFLWKMFFEKHDDYKFNGLAWLFLGVPTSSSLLYKEEFEKMKEKAPDNFRLDFAVSREQTNEKGEKMYIQTRMAQYAVELWEMLKKDNTYFYMCGLKGMEKGIDDIMVSLAAAEGIDWIEYKRQLKKAEQWNVEVY [K88Q]	decreasing interaction
